Test results reported in the supplement of paper PMC5998384.

Tests used:
HeLa Kyoto [1] = test: solubility in G1/S (NP-40 vs SDS abundance) (log2 ratio); higher = more soluble; conditions: cell cycle stage: G1/S
HeLa Kyoto [2] = test: melting temperature (median over replicates), in situ; higher = more thermally stable
HeLa Kyoto [3] = test: solubility change mitosis vs G1/S (difference of NP-40 vs SDS log2 ratios) (log2 ratio difference); higher = more soluble in mitosis
HeLa Kyoto [4] = test: thermal stability score vs G1/S (z-score of summed log2 fold changes over temperatures); higher = more thermally stable than in G1/S
[5] = cell cycle stage: early G1 (4.5 h after nocodazole release)
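Throughout, for melting temperature (median over replicates), in situ: HeLa Kyoto cells synchronized by double thymidine or nocodazole block, proteins quantified by TMT10plex mass spectrometry, three independent biological replicates.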
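Throughout, for solubility change mitosis vs G1/S (difference of NP-40 vs SDS log2 ratios): synchronized HeLa Kyoto cells (double thymidine block for G1/S, nocodazole release for mitosis), protein amounts in NP-40 versus SDS lysates quantified by mass spectrometry, three biological replicates.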
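Throughout, for solubility in G1/S (NP-40 vs SDS abundance): HeLa Kyoto cells arrested at G1/S by double thymidine block, proteins quantified by TMT10plex mass spectrometry in mild NP-40 versus SDS extracts, three biological replicates.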
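Throughout, for thermal stability score vs G1/S (z-score of summed log2 fold changes over temperatures): synchronized HeLa Kyoto cells, proteins quantified by TMT10plex mass spectrometry, three biological replicates, mitosis taken 0.5 h after nocodazole release, G1/S directly after double thymidine block.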

| Sequence | solubility in G1/S (log2) (HeLa Kyoto [1]) | melting temperature (HeLa Kyoto [2]; cell cycle stage: G1/S) [°C] | melting temperature (HeLa Kyoto [2]; cell cycle stage: mitosis) [°C] | solubility change mitosis (log2) (HeLa Kyoto [3]) | thermal stability score (HeLa Kyoto [4]; [5]) | thermal stability score (HeLa Kyoto [4]; cell cycle stage: mitosis) |
| --- | --- | --- | --- | --- | --- | --- |
| MADSSGQQGKGRRVQPQWSPPAGTQPCRLHLYNSLTRNKEVFIPQDGKKVTWYCCGPTVYDASHMGHARSYISFDILRRVLKDYFKFDVFYCMNITDIDDKIIKRARQNHLFEQYREKRPEAAQLLEDVQAALKPFSVKLNETTDPDKKQMLERIQHAVQLATEPLEKAVQSRLTGEEVNSCVEVLLEEAKDLLSDWLDSTLGCDVTDNSIFSKLPKFWEGDFHRDMEALNVLPPDVLTRVSEYVPEIVNFVQKIVDNGYGYVSNGSVYFDTAKFASSEKHSYGKLVPEAVGDQKALQEGEGDLSISADRLSEKRSPNDFALWKASKPGEPSWPCPWGKGRPGWHIECSAMAGTLLGASMDIHGGGFDLRFPHHDNELAQSEAYFENDCWVRYFLHTGHLTIAGCKMSKSLKNFITIKDALKKHSARQLRLAFLMHSWKDTLDYSSNTMESALQYEKFLNEFFLNVKDILRAPVDITGQFEKWGEEEAELNKNFYDKKTAIHKALCDNVDTRTVMEEMRALVSQCNLYMAARKAVRKRPNQALLENIALYLTHMLKIFGAVEEDSSLGFPVGGPGTSLSLEATVMPYLQVLSEFREGVRKIAREQKVPEILQLSDALRDNILPELGVRFEDHEGLPTVVKLVDRNTLLKEREEKRRVEEEKRKKKEEAARRKQEQEAAKLAKMKIPPSEMFLSETDKYSKFDENGLPTHDMEGKELSKGQAKKLKKLFEAQEKLYKEYLQMAQNGSFQ [CARS] | 0.0728 | 52.9 | 52.6 | -0.103 | 0.401 | -0.0333 |
| MADTTPNGPQGAGAVQFMMTNKLDTAMWLSRLFTVYCSALFVLPLLGLHEAASFYQRALLANALTSALRLHQRLPHFQLSRAFLAQALLEDSCHYLLYSLIFVNSYPVTMSIFPVLLFSLLHAATYTKKVLDARGSNSLPLLRSVLDKLSANQQNILKFIACNEIFLMPATVFMLFSGQGSLLQPFIYYRFLTLRYSSRRNPYCRTLFNELRIVVEHIIMKPACPLFVRRLCLQSIAFISRLAPTVP [TMEM33] | 0.0522 | 55 | 53.5 | -0.177 | 2.25 | 2.45 |
| MAEAHQAVAFQFTVTPDGIDLRLSHEALRQIYLSGLHSWKKKFIRFKNGIITGVYPASPSSWLIVVVGVMTTMYAKIDPSLGIIAKINRTLETANCMSSQTKNVVSGVLFGTGLWVALIVTMRYSLKVLLSYHGWMFTEHGKMSRATKIWMGMVKIFSGRKPMLYSFQTSLPRLPVPAVKDTVNRYLQSVRPLMKEEDFKRMTALAQDFAVGLGPRLQWYLKLKSWWATNYVSDWWEEYIYLRGRGPLMVNSNYYAMDLLYILPTHIQAARAGNAIHAILLYRRKLDREEIKPIRLLGSTIPLCSAQWERMFNTSRIPGEETDTIQHMRDSKHIVVYHRGRYFKVWLYHDGRLLKPREMEQQMQRILDNTSEPQPGEARLAALTAGDRVPWARCRQAYFGRGKNKQSLDAVEKAAFFVTLDETEEGYRSEDPDTSMDSYAKSLLHGRCYDRWFDKSFTFVVFKNGKMGLNAEHSWADAPIVAHLWEYVMSIDSLQLGYAEDGHCKGDINPNIPYPTRLQWDIPGECQEVIETSLNTANLLANDVDFHSFPFVAFGKGIIKKCRTSPDAFVQLALQLAHYKDMGKFCLTYEASMTRLFREGRTETVRSCTTESCDFVRAMVDPAQTVEQRLKLFKLASEKHQHMYRLAMTGSGIDRHLFCLYVVSKYLAVESPFLKEVLSEPWRLSTSQTPQQQVELFDLENNPEYVSSGGGFGPVADDGYGVSYILVGENLINFHISSKFSCPETDSHRFGRHLKEAMTDIITLFGLSSNSKK [CPT1A] | -0.177 | 50 | 50.1 | -0.0899 | 5.3 | 4.57 |
| MAEAPPVSGTFKFNTDAAEFIPQEKKNSGLNCGTQRRLDSNRIGRRNYSSPPPCHLSRQVPYDEISAVHQHSYHPSGSKPKSQQTSFQSSPCNKSPKSHGLQNQPWQKLRNEKHHIRVKKAQSLAEQTSDTAGLESSTRSESGTDLREHSPSESEKEVVGADPRGAKPKKATQFVYSYGRGPKVKGKLKCEWSNRTTPKPEDAGPESTKPVGVFHPDSSEASSRKGVLDGYGARRNEQRRYPQKRPPWEVEGARPRPGRNPPKQEGHRHTNAGHRNNMGPIPKDDLNERPAKSTCDSENLAVINKSSRRVDQEKCTVRRQDPQVVSPFSRGKQNHVLKNVETHTGSLIEQLTTEKYECMVCCELVRVTAPVWSCQSCYHVFHLNCIKKWARSPASQADGQSGWRCPACQNVSAHVPNTYTCFCGKVKNPEWSRNEIPHSCGEVCRKKQPGQDCPHSCNLLCHPGPCPPCPAFMTKTCECGRTRHTVRCGQAVSVHCSNPCENILNCGQHQCAELCHGGQCQPCQIILNQVCYCGSTSRDVLCGTDVGKSDGFGDFSCLKICGKDLKCGNHTCSQVCHPQPCQQCPRLPQLVRCCPCGQTPLSQLLELGSSSRKTCMDPVPSCGKVCGKPLPCGSLDFIHTCEKLCHEGDCGPCSRTSVISCRCSFRTKELPCTSLKSEDATFMCDKRCNKKRLCGRHKCNEICCVDKEHKCPLICGRKLRCGLHRCEEPCHRGNCQTCWQASFDELTCHCGASVIYPPVPCGTRPPECTQTCARVHECDHPVYHSCHSEEKCPPCTFLTQKWCMGKHEFRSNIPCHLVDISCGLPCSATLPCGMHKCQRLCHKGECLVDEPCKQPCTTPRADCGHPCMAPCHTSSPCPVTACKAKVELQCECGRRKEMVICSEASSTYQRIAAISMASKITDMQLGGSVEISKLITKKEVHQARLECDEECSALERKKRLAEAFHISEDSDPFNIRSSGSKFSDSLKEDARKDLKFVSDVEKEMETLVEAVNKGKNSKKSHSFPPMNRDHRRIIHDLAQVYGLESVSYDSEPKRNVVVTAIRGKSVCPPTTLTGVLEREMQARPPPPIPHHRHQSDKNPGSSNLQKITKEPIIDYFDVQD [NFX1] | -0.786 | 50.5 | 50.3 | 0.35 | 1.02 | 0.0215 |
| MAEARKRRELLPLIYHHLLRAGYVRAAREVKEQSGQKCFLAQPVTLLDIYTHWQQTSELGRKRKAEEDAALQAKKTRVSDPISTSESSEEEEEAEAETAKATPRLASTNSSVLGADLPSSMKEKAKAETEKAGKTGNSMPHPATGKTVANLLSGKSPRKSAEPSANTTLVSETEEEGSVPAFGAAAKPGMVSAGQADSSSEDTSSSSDETDVEGKPSVKPAQVKASSVSTKESPARKAAPAPGKVGDVTPQVKGGALPPAKRAKKPEEESESSEEGSESEEEAPAGTRSQVKASEKILQVRAASAPAKGTPGKGATPAPPGKAGAVASQTKAGKPEEDSESSSEESSDSEEETPAAKALLQAKASGKTSQVGAASAPAKESPRKGAAPAPPGKTGPAVAKAQAGKREEDSQSSSEESDSEEEAPAQAKPSGKAPQVRAASAPAKESPRKGAAPAPPRKTGPAAAQVQVGKQEEDSRSSSEESDSDREALAAMNAAQVKPLGKSPQVKPASTMGMGPLGKGAGPVPPGKVGPATPSAQVGKWEEDSESSSEESSDSSDGEVPTAVAPAQEKSLGNILQAKPTSSPAKGPPQKAGPVAVQVKAEKPMDNSESSEESSDSADSEEAPAAMTAAQAKPALKIPQTKACPKKTNTTASAKVAPVRVGTQAPRKAGTATSPAGSSPAVAGGTQRPAEDSSSSEESDSEEEKTGLAVTVGQAKSVGKGLQVKAASVPVKGSLGQGTAPVLPGKTGPTVTQVKAEKQEDSESSEEESDSEEAAASPAQVKTSVKKTQAKANPAAARAPSAKGTISAPGKVVTAAAQAKQRSPSKVKPPVRNPQNSTVLARGPASVPSVGKAVATAAQAQTGPEEDSGSSEEESDSEEEAETLAQVKPSGKTHQIRAALAPAKESPRKGAAPTPPGKTGPSAAQAGKQDDSGSSSEESDSDGEAPAAVTSAQVIKPPLIFVDPNRSPAGPAATPAQAQAASTPRKARASESTARSSSSESEDEDVIPATQCLTPGIRTNVVTMPTAHPRIAPKASMAGASSSKESSRISDGKKQEGPATQVSKKNPASLPLTQAALKVLAQKASEAQPPVARTQPSSGVDSAVGTLPATSPQSTSVQAKGTNKLRKPKLPEVQQATKAPESSDDSEDSSDSSSGSEEDGEGPQGAKSAHTLGPTPSRTETLVEETAAESSEDDVVAPSQSLLSGYMTPGLTPANSQASKATPKLDSSPSVSSTLAAKDDPDGKQEAKPQQAAGMLSPKTGGKEAASGTTPQKSRKPKKGAGNPQASTLALQSNITQCLLGQPWPLNEAQVQASVVKVLTELLEQERKKVVDTTKESSRKGWESRKRKLSGDQPAARTPRSKKKKKLGAGEGGEASVSPEKTSTTSKGKAKRDKASGDVKEKKGKGSLGSQGAKDEPEEELQKGMGTVEGGDQSNPKSKKEKKKSDKRKKDKEKKEKKKKAKKASTKDSESPSQKKKKKKKKTAEQTV [TCOF1] | -0.327 | 53.2 | 52.9 | 0.223 | -3.49 | -1.37 |
| MAECGRGGAAGGALPTSPGPALGAKGALKAGVGEGGGGGGRLGHGRARYDSGGVSNGDCSLGVSGDEARASPTRGPRGVALAPTPSAVVCTLPRESKPGGLPRRSSIIKDGTKQKRERKKTVSFSSMPTEKKISSASDCINSMVEGSELKKVRSNSRIYHRYFLLDADMQSLRWEPSKKDSEKAKIDIKSIKEVRTGKNTDIFRSNGISDQISEDCAFSVIYGENYESLDLVANSADVANIWVTGLRYLISYGKHTLDMLESSQDNMRTSWVSQMFSEIDVDNLGHITLCNAVQCIRNLNPGLKTSKIELKFKELHKSKDKAGTEVTKEEFIEVFHELCTRPEIYFLLVQFSSNKEFLDTKDLMMFLEAEQGVAHINEEISLEIIHKYEPSKEGQEKGWLSIDGFTNYLMSPDCYIFDPEHKKVCQDMKQPLSHYFINSSHNTYLIEDQFRGPSDITGYIRALKMGCRSVELDVWDGPDNEPVIYTGHTMTSQIVFRSVIDIINKYAFFASEYPLILCLENHCSIKQQKVMVQHMKKLLGDKLYTTSPNVEESYLPSPDVLKGKILIKAKKLSSNCSGVEGDVTDEDEGAEMSQRMGKENMEQPNNVPVKRFQLCKELSELVSICKSVQFKEFQVSFQVQKYWEVCSFNEVLASKYANENPGDFVNYNKRFLARVFPSPMRIDSSNMNPQDFWKCGCQIVAMNFQTPGLMMDLNIGWFRQNGNCGYVLRPAIMREEVSFFSANTKDSVPGVSPQLLHIKIISGQNFPKPKGSGAKGDVVDPYVYVEIHGIPADCAEQRTKTVHQNGDAPIFDESFEFQINLPELAMVRFVVLDDDYIGDEFIGQYTIPFECLQTGYRHVPLQSLTGEVLAHASLFVHVAITNRRGGGKPHKRGLSVRKGKKSREYASLRTLWIKTVDEVFKNAQPPIRDATDLRENMQNAVVSFKELCGLSSVANLMQCMLAVSPRFLGPDNTPLVVLNLSEQYPTMELQGIVPEVLKKIVTTYDMMIQSLKALIENADAVYEKIVHCQKAAMEFHEHLHSIGTKEGLKERKLQKAVESFTWNITILKGQADLLKYAKNETLENLKQIHFAAVSCGLNKPGTENADVQKPRRSLEVIPEKANDETGE [PLCL2] | -0.0622 | 50.4 | 50.2 | -0.105 | -0.0105 | -0.32 |
| MAEERPGAWFGFGFCGFGQELGSGRGRQVHSPSPLRAGVDICRVSASWSYTAFVTRGGRLELSGSASGAAGRCKDAWASEGLLAVLRAGPGPEALLQVWAAESALRGEPLWAQNVVPEAEGEDDPAGEAQAGRLPLLPCARAYVSPRAPFYRPLAPELRARQLELGAEHALLLDAAGQVFSWGGGRHGQLGHGTLEAELEPRLLEALQGLVMAEVAAGGWHSVCVSETGDIYIWGWNESGQLALPTRNLAEDGETVAREATELNEDGSQVKRTGGAEDGAPAPFIAVQPFPALLDLPMGSDAVKASCGSRHTAVVTRTGELYTWGWGKYGQLGHEDTTSLDRPRRVEYFVDKQLQVKAVTCGPWNTYVYAVEKGKS [RCCD1] | 0.0194 | 51.8 | 54 | -0.0463 | -0.546 | -1.48 |
